Substrate in series [1]: CC1(C)S[C@@H]2[C@H](NC(=O)Cc3ccccc3)C(=O)N2[C@H]1C(=O)O
Nature of the series: (§1) Ratio of Kcat to Km of Providencia stuartii AmpC assessed as drug hydrolysis by spectrophotometry.

Substrate in series [2]: CO/N=C(\C(=O)N[C@@H]1C(=O)N2C(C(=O)[O-])=C(C[N+]3(C)CCCC3)CS[C@H]12)c1csc(N)n1
The description is as §1.

Substrate in series [3]: O=C(Cc1cccs1)N[C@@H]1C(=O)N2C(C(=O)[O-])=C(C[n+]3ccccc3)CS[C@H]12
Described as §1.

Substrate in series [4]: Nc1nc(/C(=N/O)C(=O)N[C@@H]2C(=O)N3C(C(=O)O)=C(/C=C4\CCN([C@@H]5CCNC5)C4=O)CS[C@H]23)ns1
The description is as §1.

Substrate in series [5]: CC(C)(O/N=C(\C(=O)N[C@@H]1C(=O)N2C(C(=O)[O-])=C(C[n+]3ccccc3)CS[C@H]12)c1csc(N)n1)C(=O)O
The description is as §1.

Substrate in series [6]: CC1(C)S[C@@H]2[C@H](NC(=O)Cc3ccccc3)C(=O)N2[C@H]1C(=O)O
Nature of the series: (§2) Activity of Providencia stuartii AmpC assessed as drug hydrolysis by spectrophotometry.

Substrate in series [7]: CO/N=C(\C(=O)N[C@@H]1C(=O)N2C(C(=O)[O-])=C(C[N+]3(C)CCCC3)CS[C@H]12)c1csc(N)n1
The series is described as §2.

Substrate in series [8]: O=C(Cc1cccs1)N[C@@H]1C(=O)N2C(C(=O)[O-])=C(C[n+]3ccccc3)CS[C@H]12
Described as §2.

Substrate in series [9]: Nc1nc(/C(=N/O)C(=O)N[C@@H]2C(=O)N3C(C(=O)O)=C(/C=C4\CCN([C@@H]5CCNC5)C4=O)CS[C@H]23)ns1
The description is as §2.

Substrate in series [10]: CC(C)(O/N=C(\C(=O)N[C@@H]1C(=O)N2C(C(=O)[O-])=C(C[n+]3ccccc3)CS[C@H]12)c1csc(N)n1)C(=O)O
Described as §2.

Substrate in series [11]: CC1(C)S[C@@H]2[C@H](NC(=O)Cc3ccccc3)C(=O)N2[C@H]1C(=O)O
Nature of the series: (§3) Ratio of Kcat to Km of Pseudomonas aeruginosa IMP1 assessed as drug hydrolysis by spectrophotometry.

Substrate in series [12]: CO/N=C(\C(=O)N[C@@H]1C(=O)N2C(C(=O)[O-])=C(C[N+]3(C)CCCC3)CS[C@H]12)c1csc(N)n1
The description is as §3.

Substrate in series [13]: O=C(Cc1cccs1)N[C@@H]1C(=O)N2C(C(=O)[O-])=C(C[n+]3ccccc3)CS[C@H]12
The series is described as §3.

Substrate in series [14]: Nc1nc(/C(=N/O)C(=O)N[C@@H]2C(=O)N3C(C(=O)O)=C(/C=C4\CCN([C@@H]5CCNC5)C4=O)CS[C@H]23)ns1
The description is as §3.

Substrate in series [15]: CC(C)(O/N=C(\C(=O)N[C@@H]1C(=O)N2C(C(=O)[O-])=C(C[n+]3ccccc3)CS[C@H]12)c1csc(N)n1)C(=O)O
The description is as §3.

Substrate in series [16]: CC1(C)S[C@@H]2[C@H](NC(=O)Cc3ccccc3)C(=O)N2[C@H]1C(=O)O
Nature of the series: (§4) Ratio of Kcat to Km of Serratia marcescens SME3 assessed as drug hydrolysis by spectrophotometry.

Substrate in series [17]: CO/N=C(\C(=O)N[C@@H]1C(=O)N2C(C(=O)[O-])=C(C[N+]3(C)CCCC3)CS[C@H]12)c1csc(N)n1
The description is as §4.

Substrate in series [18]: O=C(Cc1cccs1)N[C@@H]1C(=O)N2C(C(=O)[O-])=C(C[n+]3ccccc3)CS[C@H]12
Described as §4.

Substrate in series [19]: Nc1nc(/C(=N/O)C(=O)N[C@@H]2C(=O)N3C(C(=O)O)=C(/C=C4\CCN([C@@H]5CCNC5)C4=O)CS[C@H]23)ns1
Described as §4.

Substrate in series [20]: CC(C)(O/N=C(\C(=O)N[C@@H]1C(=O)N2C(C(=O)[O-])=C(C[n+]3ccccc3)CS[C@H]12)c1csc(N)n1)C(=O)O
Described as §4.

Substrate in series [21]: CC1(C)S[C@@H]2[C@H](NC(=O)Cc3ccccc3)C(=O)N2[C@H]1C(=O)O
Nature of the series: (§5) Activity of Serratia marcescens SME3 assessed as drug hydrolysis by spectrophotometry.

Substrate in series [22]: CO/N=C(\C(=O)N[C@@H]1C(=O)N2C(C(=O)[O-])=C(C[N+]3(C)CCCC3)CS[C@H]12)c1csc(N)n1
Described as §5.

Substrate in series [23]: O=C(Cc1cccs1)N[C@@H]1C(=O)N2C(C(=O)[O-])=C(C[n+]3ccccc3)CS[C@H]12
The series is described as §5.

Substrate in series [24]: Nc1nc(/C(=N/O)C(=O)N[C@@H]2C(=O)N3C(C(=O)O)=C(/C=C4\CCN([C@@H]5CCNC5)C4=O)CS[C@H]23)ns1
Described as §5.

Substrate in series [25]: CC(C)(O/N=C(\C(=O)N[C@@H]1C(=O)N2C(C(=O)[O-])=C(C[n+]3ccccc3)CS[C@H]12)c1csc(N)n1)C(=O)O
The description is as §5.

B1: Beta-lactamase (Providencia stuartii), O69773 (protein)
chain: MDNSMKNIFRQGRLFIALSLAMTSISAFALTQQEVDDIIKPLMKQEQIPGMSVAISVNGKQAIYHYGVQSKQTQIPVSDRTLYEIGSLSKTFTATLATYAQIQGKLDFSQSVSHYLPELKGSAFDNVSVMNLATHTSGLSLFVPSDIKTNDQLMAYYQKWLPDNEVGQYRSYSNLGVGLLGIVTAKQLNMPFSQAMEKLMLPSLGLKHTYIHVPKSQEKYYAQGYNKQNQPVRLNLEILGPEAYGLKSNAKDLIRYLEINMQSIKVAKTWQEAIENTHTGVYLTDSFVQDMMWESYPWPVSLSQLLQGNRDDMALKPQKVELIKPAMAPEVRAYYNKTGSSNGFATYAIFIPEEKIAIVMLSNKWIPIPQRITATYQLLEKIER
The term kcat/Km denotes the turnover number divided by the Michaelis constant. By Km is commonly meant the concentration of substrate that gives half-maximal velocity. In general, kcat refers to the maximal rate divided by the concentration of active sites. Take B1: the kcat/Km came to 250000 M⁻¹ s⁻¹ in series [1]; 3800 M⁻¹ s⁻¹ in series [2]; 580000 M⁻¹ s⁻¹ in series [3]; 620 M⁻¹ s⁻¹ in series [4]; 7300 M⁻¹ s⁻¹ in series [5]. The Km was 14 µM in series [6]; 780 µM in series [7]; 920 µM in [8]; 260 µM in series [9]; 26 µM in [10]. Moreover, the kcat in [6] was 3.3 s⁻¹; in series [7] it was 3 s⁻¹; in [8], 530 s⁻¹; in series [9], 0.16 s⁻¹; in series [10] it was 0.19 s⁻¹.

B2: Metallo beta-lactamase (Pseudomonas aeruginosa), Q6TUJ4 (protein)
chain: YVHTSFEEVNGWGVVPKHGLVVLVNAEAYLIDTPFTAKDTEKLVTWFVERGYKIKGSISSHFHSDSTGGIEWLNSRSIPTYASELTNELLKKDGKVQATNSFSGVNYWLVKNKIEVFYPGPGHTPDNVVVWLP
Take B2: the kcat/Km was 560000 M⁻¹ s⁻¹ in series [11]; 150000 M⁻¹ s⁻¹ in [12]; 75000 M⁻¹ s⁻¹ in series [13]; 740000 M⁻¹ s⁻¹ in series [14]; 90000 M⁻¹ s⁻¹ in series [15].

B3: Carbapenem-hydrolyzing beta-lactamase SME-3 (Serratia marcescens), Q6PRG8 (protein)
chain: MSNKVNFKTASFLFSVCLALSAFNAHANKSDAAAKQIKKLEEDFDGRIGVFAIDTGSGNTFGYRSDERFPLCSSFKGFLAAAVLERVQQKKLDINQKVKYESRDLEYYSPITTKYKGSGMTLGDMASAALQYSDNGATNIIMERFLGGPEGMTKFMRSIGDNEFRLDRWELELNTAIPGDKRDTSTPKAVANSLNKLALGNVLNAKVKAIYQNWLKGNTTGDARIRASVPADWVVGDKTGSCGAYGTANDYAVIWPKNRAPLIVSIYTTRKSKDDKHSDKTIAEASRIAIQAID
For B3, the kcat/Km in series [16] was 4e+06 M⁻¹ s⁻¹; in series [17] it was 5400 M⁻¹ s⁻¹; in series [18], 3e+06 M⁻¹ s⁻¹; in series [19], 22000 M⁻¹ s⁻¹; in [20], 940 M⁻¹ s⁻¹. The Km in series [21] turned out to be 2.2 µM; in series [22], 280 µM; in series [23] it was 400 µM; in series [24] it was 270 µM; in [25] it was 170 µM. The kcat in series [21] is 8.8 s⁻¹; in series [22], 1.5 s⁻¹; in series [23], 1200 s⁻¹; in series [24], 5.9 s⁻¹; in series [25], 0.16 s⁻¹.

These data come from ChEMBL document CHEMBL1143427, “Interactions of ceftobiprole with beta-lactamases from molecular classes A to D” (Antimicrob Agents Chemother, 2007).
